From EP4671273A1 (Anaveon AG, dated 2025)

B1: IFM656 (bispecific antibody, human IgG1, kappa, lambda, L234A L235A)
heavy 1: EVQLLESGGGLVQPGGSLRLSCAASGFTFSINAMTWVRQAPGKGLEWVSTISGSGFSTYYADSLKGRFTISRDNSKNTLYLQMNSLRAEDTAVYYCAKEVYGDYWGQGTLVTVSSASTKGPSVFPLAPSSKSTSGGTAALGCLVKDYFPEPVTVSWNSGALTSGVHTFPAVLQSSGLYSLSSVVTVPSSSLGTQTYICNVNHKPSNTKVDKRVEPKSCDKTHTCPPCPAPEAAGGPSVFLFPPKPKDTLMISRTPEVTCVVVDVSHEDPEVKFNWYVDGVEVHNAKTKPREEQYNSTYRVVSVLTVLHQDWLNGKEYKCKVSNKALAAPIEKTISKAKGQPREPQVCTLPPSREEMTKNQVSLSCAVKGFYPSDIAVEWESNGQPENNYKTTPPVLDSDGSFFLVSKLTVDKSRWQQGNVFSCSVMHEALHNHYTQKSLSLSPGK
light 1: not shown
heavy 2: not shown
light 2: DIQLTQSPSSVSASVGDRVTITCRASQGISSWLAWYQHKPGKAPKLLIYVASSLQSGVPSRFSGSGSGTDFTLTISSLQPEDFATYYCQQASSFPLTFGGGTKVEIKRTVAAPSVFIFPPSDEQLKSGTASVVCLLNNFYPREAKVQWKVDNALQSGNSQESVTEQDSKDSTYSLSSTLTLSKADYEKHKVYACEVTHQGLSSPVTKSFNRGEC
B2: SUR250 (bispecific antibody, human IgG1, kappa, lambda, L234A L235A)
heavy 1: EVQLLESGGGLVQPGGSLRLSCAASGFTFSINAMTWVRQAPGKGLEWVSTISGSGFSTYYADSLKGRFTISRDNSKNTLYLQMNSLRAEDTAVYYCAKEVYGDYWGQGTLVTVSSASTKGPSVFPLAPSSKSTSGGTAALGCLVKDYFPEPVTVSWNSGALTSGVHTFPAVLQSSGLYSLSSVVTVPSSSLGTQTYICNVNHKPSNTKVDKRVEPKSCDKTHTCPPCPAPEAAGGPSVFLFPPKPKDTLMISRTPEVTCVVVDVSHEDPEVKFNWYVDGVEVHNAKTKPREEQYNSTYRVVSVLTVLHQDWLNGKEYKCKVSNKALAAPIEKTISKAKGQPREPQVCTLPPSREEMTKNQVSLSCAVKGFYPSDIAVEWESNGQPENNYKTTPPVLDSDGSFFLVSKLTVDKSRWQQGNVFSCSVMHEALHNHYTQKSLSLSPGK
light 1: not shown
heavy 2: not shown
light 2: DIQLTQSPSSVSASVGDRVTITCRASQGISSWLAWYQHKPGKAPKLLIYVASSLQSGVPSRFSGSGSGTDFTLTISSLQPEDFATYYCQQASSFPLTFGGGTKVEIKRTVAAPSVFIFPPSDEQLKSGTASVVCLLNNFYPREAKVQWKVDNALQSGNSQESVTEQDSKDSTYSLSSTLTLSKADYEKHKVYACEVTHQGLSSPVTKSFNRGEC
B3: GMH764 (bispecific antibody, human IgG1, kappa, lambda, L234A L235A)
heavy 1: EVQLLESGGGLVQPGGSLRLSCAASGFTFSINAMTWVRQAPGKGLEWVSTISGSGFSTYYADSLKGRFTISRDNSKNTLYLQMNSLRAEDTAVYYCAKEVYGDYWGQGTLVTVSSASTKGPSVFPLAPSSKSTSGGTAALGCLVKDYFPEPVTVSWNSGALTSGVHTFPAVLQSSGLYSLSSVVTVPSSSLGTQTYICNVNHKPSNTKVDKRVEPKSCDKTHTCPPCPAPEAAGGPSVFLFPPKPKDTLMISRTPEVTCVVVDVSHEDPEVKFNWYVDGVEVHNAKTKPREEQYNSTYRVVSVLTVLHQDWLNGKEYKCKVSNKALAAPIEKTISKAKGQPREPQVCTLPPSREEMTKNQVSLSCAVKGFYPSDIAVEWESNGQPENNYKTTPPVLDSDGSFFLVSKLTVDKSRWQQGNVFSCSVMHEALHNHYTQKSLSLSPGK
light 1: not shown
heavy 2: QVQLQESGPGLVKPSETLSLTCTVSGGSISSDYWGWIRQPPGKGLEWIGYISYRGSTNYNPSLKSRVTISVDTSRNQFSLKLSSVTAADTAVYYCARSAGVTDFDWWGQGTLVTVSSASTKGPSVFPLAPSSKSTSGGTAALGCLVKDYFPEPVTVSWNSGALTSGVHTFPAVLQSSGLYSLSSVVTVPSSSLGTQTYICNVNHKPSNTKVDKRVEPKSCDKTHTCPPCPAPEAAGGPSVFLFPPKPKDTLMISRTPEVTCVVVDVSHEDPEVKFNWYVDGVEVHNAKTKPREEQYNSTYRVVSVLTVLHQDWLNGKEYKCKVSNKALAAPIEKTISKAKGQPREPQVYTLPPCREEMTKNQVSLWCLVKGFYPSDIAVEWESNGQPENNYKTTPPVLDSDGSFFLYSKLTVDKSRWQQGNVFSCSVMHEALHNHYTQKSLSLSPGK
light 2: not shown
B4: GSV075 (bispecific antibody, human IgG1, kappa, lambda, L234A L235A)
heavy 1: EVQLLESGGGLVQPGGSLRLSCAASGFTFSINAMTWVRQAPGKGLEWVSTISGSGFSTYYADSLKGRFTISRDNSKNTLYLQMNSLRAEDTAVYYCAKEVYGDYWGQGTLVTVSSASTKGPSVFPLAPSSKSTSGGTAALGCLVKDYFPEPVTVSWNSGALTSGVHTFPAVLQSSGLYSLSSVVTVPSSSLGTQTYICNVNHKPSNTKVDKRVEPKSCDKTHTCPPCPAPEAAGGPSVFLFPPKPKDTLMISRTPEVTCVVVDVSHEDPEVKFNWYVDGVEVHNAKTKPREEQYNSTYRVVSVLTVLHQDWLNGKEYKCKVSNKALAAPIEKTISKAKGQPREPQVCTLPPSREEMTKNQVSLSCAVKGFYPSDIAVEWESNGQPENNYKTTPPVLDSDGSFFLVSKLTVDKSRWQQGNVFSCSVMHEALHNHYTQKSLSLSPGK
light 1: not shown
heavy 2: QVQLQESGPGLVKPSETLSLTCTVSGGSISSDYWGWIRQPPGKGLEWIGYISYRGSTNYNPSLKSRVTISVDTSRNQFSLKLSSVTAADTAVYYCARSAGVTDFDWWGQGTLVTVSSASTKGPSVFPLAPSSKSTSGGTAALGCLVKDYFPEPVTVSWNSGALTSGVHTFPAVLQSSGLYSLSSVVTVPSSSLGTQTYICNVNHKPSNTKVDKRVEPKSCDKTHTCPPCPAPEAAGGPSVFLFPPKPKDTLMISRTPEVTCVVVDVSHEDPEVKFNWYVDGVEVHNAKTKPREEQYNSTYRVVSVLTVLHQDWLNGKEYKCKVSNKALAAPIEKTISKAKGQPREPQVYTLPPCREEMTKNQVSLWCLVKGFYPSDIAVEWESNGQPENNYKTTPPVLDSDGSFFLYSKLTVDKSRWQQGNVFSCSVMHEALHNHYTQKSLSLSPGK
light 2: not shown
B5: ECW089 (bispecific antibody, human IgG1, kappa, lambda, L234A L235A)
heavy 1: EVQLLESGGGLVQPGGSLRLSCAASGFTFSINAMTWVRQAPGKGLEWVSTISGSGFSTYYADSLKGRFTISRDNSKNTLYLQMNSLRAEDTAVYYCAKEVYGDYWGQGTLVTVSSASTKGPSVFPLAPSSKSTSGGTAALGCLVKDYFPEPVTVSWNSGALTSGVHTFPAVLQSSGLYSLSSVVTVPSSSLGTQTYICNVNHKPSNTKVDKRVEPKSCDKTHTCPPCPAPEAAGGPSVFLFPPKPKDTLMISRTPEVTCVVVDVSHEDPEVKFNWYVDGVEVHNAKTKPREEQYNSTYRVVSVLTVLHQDWLNGKEYKCKVSNKALAAPIEKTISKAKGQPREPQVCTLPPSREEMTKNQVSLSCAVKGFYPSDIAVEWESNGQPENNYKTTPPVLDSDGSFFLVSKLTVDKSRWQQGNVFSCSVMHEALHNHYTQKSLSLSPGK
light 1: not shown
heavy 2: QVQLQESGPGLVKPSETLSLTCTVSGGSISSDYWGWIRQPPGKGLEWIGYISYRGSTNYNPSLKSRVTISVDTSRNQFSLKLSSVTAADTAVYYCARSAGVTDFDAWGQGTLVTVSSASTKGPSVFPLAPSSKSTSGGTAALGCLVKDYFPEPVTVSWNSGALTSGVHTFPAVLQSSGLYSLSSVVTVPSSSLGTQTYICNVNHKPSNTKVDKRVEPKSCDKTHTCPPCPAPEAAGGPSVFLFPPKPKDTLMISRTPEVTCVVVDVSHEDPEVKFNWYVDGVEVHNAKTKPREEQYNSTYRVVSVLTVLHQDWLNGKEYKCKVSNKALAAPIEKTISKAKGQPREPQVYTLPPCREEMTKNQVSLWCLVKGFYPSDIAVEWESNGQPENNYKTTPPVLDSDGSFFLYSKLTVDKSRWQQGNVFSCSVMHEALHNHYTQKSLSLSPGK
light 2: not shown
B6: EDV817 (bispecific antibody, human IgG1, kappa, lambda, L234A L235A)
heavy 1: EVQLLESGGGLVQPGGSLRLSCAASGFTFSINAMTWVRQAPGKGLEWVSTISGSGFSTYYADSLKGRFTISRDNSKNTLYLQMNSLRAEDTAVYYCAKEVYGDYWGQGTLVTVSSASTKGPSVFPLAPSSKSTSGGTAALGCLVKDYFPEPVTVSWNSGALTSGVHTFPAVLQSSGLYSLSSVVTVPSSSLGTQTYICNVNHKPSNTKVDKRVEPKSCDKTHTCPPCPAPEAAGGPSVFLFPPKPKDTLMISRTPEVTCVVVDVSHEDPEVKFNWYVDGVEVHNAKTKPREEQYNSTYRVVSVLTVLHQDWLNGKEYKCKVSNKALAAPIEKTISKAKGQPREPQVCTLPPSREEMTKNQVSLSCAVKGFYPSDIAVEWESNGQPENNYKTTPPVLDSDGSFFLVSKLTVDKSRWQQGNVFSCSVMHEALHNHYTQKSLSLSPGK
light 1: not shown
heavy 2: QVQLQESGPGLVKPSETLSLTCTVSGGSISSDYWGWIRQPPGKGLEWIGYISYRGSTNYNPSLKSRVTISVDTSRNQFSLKLSSVTAADTAVYYCARSAGVTDFDAWGQGTLVTVSSASTKGPSVFPLAPSSKSTSGGTAALGCLVKDYFPEPVTVSWNSGALTSGVHTFPAVLQSSGLYSLSSVVTVPSSSLGTQTYICNVNHKPSNTKVDKRVEPKSCDKTHTCPPCPAPEAAGGPSVFLFPPKPKDTLMISRTPEVTCVVVDVSHEDPEVKFNWYVDGVEVHNAKTKPREEQYNSTYRVVSVLTVLHQDWLNGKEYKCKVSNKALAAPIEKTISKAKGQPREPQVYTLPPCREEMTKNQVSLWCLVKGFYPSDIAVEWESNGQPENNYKTTPPVLDSDGSFFLYSKLTVDKSRWQQGNVFSCSVMHEALHNHYTQKSLSLSPGK
light 2: not shown
B7: BBU753 (bispecific antibody, human IgG1, kappa, lambda, L234A L235A)
heavy 1: EVQLLESGGGLVQPGGSLRLSCAASGFTFSINAMTWVRQAPGKGLEWVSTISGSGFSTYYADSLKGRFTISRDNSKNTLYLQMNSLRAEDTAVYYCAKEVYGDYWGQGTLVTVSSASTKGPSVFPLAPSSKSTSGGTAALGCLVKDYFPEPVTVSWNSGALTSGVHTFPAVLQSSGLYSLSSVVTVPSSSLGTQTYICNVNHKPSNTKVDKRVEPKSCDKTHTCPPCPAPEAAGGPSVFLFPPKPKDTLMISRTPEVTCVVVDVSHEDPEVKFNWYVDGVEVHNAKTKPREEQYNSTYRVVSVLTVLHQDWLNGKEYKCKVSNKALAAPIEKTISKAKGQPREPQVCTLPPSREEMTKNQVSLSCAVKGFYPSDIAVEWESNGQPENNYKTTPPVLDSDGSFFLVSKLTVDKSRWQQGNVFSCSVMHEALHNHYTQKSLSLSPGK
light 1: not shown
heavy 2: QVQLQESGPGLVKPSETLSLTCTVSGGSISSDFWGWIRQPPGKGLEWIGYISSRGSTNYNPSLKRRVTISVDTSRNQFSLKLSSVTAADTAVYYCARSAGVADFDFWGQGTLVTVSSASTKGPSVFPLAPSSKSTSGGTAALGCLVKDYFPEPVTVSWNSGALTSGVHTFPAVLQSSGLYSLSSVVTVPSSSLGTQTYICNVNHKPSNTKVDKRVEPKSCDKTHTCPPCPAPEAAGGPSVFLFPPKPKDTLMISRTPEVTCVVVDVSHEDPEVKFNWYVDGVEVHNAKTKPREEQYNSTYRVVSVLTVLHQDWLNGKEYKCKVSNKALAAPIEKTISKAKGQPREPQVYTLPPCREEMTKNQVSLWCLVKGFYPSDIAVEWESNGQPENNYKTTPPVLDSDGSFFLYSKLTVDKSRWQQGNVFSCSVMHEALHNHYTQKSLSLSPGK
light 2: not shown

What follows are binders tested against T1, human IL-21 receptor (IL-21R) on cells (human, UniProt Q9HBE5 20-538; P31785 23-369) (assay: cell-based or functional assay).
T1 sequence (Q9HBE5 20-538, chain 1 of 2): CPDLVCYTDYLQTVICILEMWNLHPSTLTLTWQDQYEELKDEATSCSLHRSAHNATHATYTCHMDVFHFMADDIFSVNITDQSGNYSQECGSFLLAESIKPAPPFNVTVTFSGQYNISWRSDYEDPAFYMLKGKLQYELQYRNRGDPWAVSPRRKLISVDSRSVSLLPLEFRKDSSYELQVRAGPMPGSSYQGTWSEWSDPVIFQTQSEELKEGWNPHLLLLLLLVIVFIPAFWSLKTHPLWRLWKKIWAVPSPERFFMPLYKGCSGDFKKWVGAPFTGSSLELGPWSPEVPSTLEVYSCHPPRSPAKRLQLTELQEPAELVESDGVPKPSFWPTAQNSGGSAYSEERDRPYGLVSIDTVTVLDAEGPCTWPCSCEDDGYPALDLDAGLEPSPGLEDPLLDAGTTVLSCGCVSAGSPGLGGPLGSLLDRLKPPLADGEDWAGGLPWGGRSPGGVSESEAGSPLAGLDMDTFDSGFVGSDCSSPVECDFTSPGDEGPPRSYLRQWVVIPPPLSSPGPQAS
T1 sequence (P31785 23-369, chain 2 of 2): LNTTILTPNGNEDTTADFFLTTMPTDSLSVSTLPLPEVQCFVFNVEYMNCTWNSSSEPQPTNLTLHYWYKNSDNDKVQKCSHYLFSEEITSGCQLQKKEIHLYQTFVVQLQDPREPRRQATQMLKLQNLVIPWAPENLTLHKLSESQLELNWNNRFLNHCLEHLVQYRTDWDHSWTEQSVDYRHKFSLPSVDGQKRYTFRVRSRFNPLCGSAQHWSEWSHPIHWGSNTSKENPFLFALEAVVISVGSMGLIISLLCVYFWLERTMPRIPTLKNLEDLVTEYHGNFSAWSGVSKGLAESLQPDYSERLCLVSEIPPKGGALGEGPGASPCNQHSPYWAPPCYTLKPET
In the case of B1, the “EC50B, pSTAT3+ Jurkat PD-1 cells, PD-1 blocked” value (from here on “EC50B, pSTAT3+ Jurkat PD-1 cells”) is reported as 15.9 nM and the “EC50NB, pSTAT3+ Jurkat PD-1 cells” value is reported as 0.21 nM. For B2, the “EC50B, pSTAT3+ Jurkat PD-1 cells” value was 5.36 nM and the “EC50NB, pSTAT3+ Jurkat PD-1 cells” value was 80 pM.

Molecular target: T1, human IL-21 receptor (IL-21R) on cells
Test: cell-based or functional assay
Remark: another data set of the same source
For B3, the “EC50B, pSTAT3+ Jurkat PD-1 cells” value was 0.872 nM and the “EC50NB, pSTAT3+ Jurkat PD-1 cells” value was 13 pM. In the case of B4, the “EC50B, pSTAT3+ Jurkat PD-1 cells” value is reported as 0.627 nM and the “EC50NB, pSTAT3+ Jurkat PD-1 cells” value is reported as 23 pM. In the case of B5, the “EC50B, pSTAT3+ Jurkat PD-1 cells” value is reported as 0.13 nM and the “EC50NB, pSTAT3+ Jurkat PD-1 cells” value is reported as 96.3 pM. With B6 the “EC50B, pSTAT3+ Jurkat PD-1 cells” value was 0.13 nM and the “EC50NB, pSTAT3+ Jurkat PD-1 cells” value was 96.9 pM. B7 was tested, and the “EC50B, pSTAT3+ Jurkat PD-1 cells” value was 0.312 nM and the “EC50NB, pSTAT3+ Jurkat PD-1 cells” value was 15 pM.
